# Test results from doi:10.1101/303123 (bioRxiv, 2018).
# T1: XcpVW binary complex (XcpV (28-129) with XcpW (28-203)) (P. aeruginosa, UniProt Q00516 28-129; Q00517 28-203)
# T1 sequence (looked up) 1: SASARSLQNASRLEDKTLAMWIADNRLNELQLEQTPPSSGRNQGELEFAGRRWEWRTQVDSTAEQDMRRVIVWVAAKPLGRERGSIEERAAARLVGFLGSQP
# T1 sequence (looked up) 2: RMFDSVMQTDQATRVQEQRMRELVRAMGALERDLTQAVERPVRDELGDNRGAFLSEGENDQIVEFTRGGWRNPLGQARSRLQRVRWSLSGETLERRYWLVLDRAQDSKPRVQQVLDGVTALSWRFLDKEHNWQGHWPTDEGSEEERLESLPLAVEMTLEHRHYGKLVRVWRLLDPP
# T2: XcpX (29-313), soluble form of the minor pseudopilin XcpX (P. aeruginosa, UniProt Q00518 29-313)
# T2 sequence (looked up): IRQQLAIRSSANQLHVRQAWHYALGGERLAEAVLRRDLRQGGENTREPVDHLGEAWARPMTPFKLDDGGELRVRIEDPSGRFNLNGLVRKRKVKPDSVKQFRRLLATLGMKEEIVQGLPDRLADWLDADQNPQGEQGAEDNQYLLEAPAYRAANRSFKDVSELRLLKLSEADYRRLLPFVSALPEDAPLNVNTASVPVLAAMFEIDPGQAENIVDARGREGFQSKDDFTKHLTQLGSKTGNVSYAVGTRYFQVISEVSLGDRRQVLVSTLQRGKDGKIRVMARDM
# B1: XcpU (29-172), soluble form of the minor pseudopilin XcpU (domain or fragment, P. aeruginosa, UniProt Q00515 29-172, looked up)
# chain: STGFASTSRELDSEAERLAGLIGVLTDEAVLDNREYGLRLERDAYQVLRYDEAKARWLPVARDSHRLPEWAELTFELDGQPLVLAGSKGEKEQKKGTDQPQLLILSSGELSPFRLRLAERGPEGRALSLSSDGFRLPRVEVARR
# B2: XcpV (28-129), soluble form of the minor pseudopilin XcpV (domain or fragment, P. aeruginosa, UniProt Q00516 28-129, looked up)
# chain: T1 sequence (looked up) 1
# Tests used:
# [1] = molecular target: T1, XcpVW binary complex (XcpV (28-129) …); test: SEC + AUC
# [2] = molecular target: T2, XcpX (29-313), soluble form of the …; test: crystal structure
binder,measurement,setting,value
B1,binding result,[1],binds
B2,binding result,[2],binds
